Reference: the nanobody polyreactivity screen of Harvey et al. (2022)

Test: yeast display, Sf9 membrane polyspecificity reagent, FACS + sequencing; frameworks hold sequencing errors
Summary of the method: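 A nanobody's polyreactivity label depends on the gate it was sorted from. Yeast display cells were stained with 10% biotinylated, detergent-solubilized Sf9 membrane reagent for 1 hour at 4 °C, enriched on streptavidin microbeads and sorted by FACS. The low and high (top ~1%) gates were set on anti-HA fluorescence for expression and streptavidin fluorescence for reagent binding.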

| Sequence | polyreactivity (PSR sort gate) |
| --- | --- |
| QVQLVESGGGLVQAGGSLRLSCAASGGIVRSNAMGWYRQAPGKERELVAAINRSVRTYYADSVKGRFTISRDNEKNTVYLQMNSLKPEDTAVYYCAAQQGVISRGNYWGQGTQVTVSA | low polyreactivity |
| QVQLVESGGGLVQAGGSLRLSCAASGSTFGSNAMGWYRQAPGKERELVAAISWTGGSTYYADSVKGRFTISRDNAKYTVYLQMKSLKPEDTAVYYCNAYGYGYPLYRYDYWGQGTQVTVSS | low polyreactivity |
| QVQLVDSGGGLVQAGGSLRLSCAASGFIFSWYAMGWYRQAPGKERELVAAINWSGGSTYYADSVKGRFTISRDNAKNTVYLQMNSLKPEDTAVYYCAAVTSGISKYDYWGQGTQVTVSS | high polyreactivity |
| QVQLEESGVGLVQAGGSLRLSCADSGFSFRTNAMGWYRQAPGKERELVAAISRSSGSTYYADSVKGRFTISRDNSKNTVYLQMNSMKPEETAVYYCNAVRYYSRGYTRYDYWGQGSQVTVSS | high polyreactivity |
| QVQLVESGGGLVQAGGSLRLSCAASGRTLARNAMGWYRQAPGKERELVASINGRTTRTYYADSVKGRFTISRDNAKNTVYLQMNSLKPADTAVYYCAAAVRYRKYNYWGQGTQVTVSS | high polyreactivity |
| QVQLVESGGGLVQAGGSLRLSCAASGRIYRRNTMGWYRQAPGKERELVAAITSSGGSTYADSVKGRFTISRDNAKNTVYLQMISLKPEDSAVYYCATYVAYHRGYRTYDHWGQGTHVTVSS | low polyreactivity |
| QVQLVESGGGLVQAGGSLRLSCAASGIIFTQNGMGWYRQAPGKERELVAAISWSAGGTYYADSVKGRFTISRYNAKNTVLLQMNSLKPEDTAVYYCNARVFNVFREFNSWGQGTQVTVSS | low polyreactivity |
| QVQLVESGGGLVQAGGSLRLSCAASGYIYRYNAMGWYRQAPGKEREFVASISQRGGSTYYADSVKGRFTISRDNAKNTVYLQMNSLKPEDTAVYYCAARLGYYSYEYNYWGQGTQVTVSS | high polyreactivity |
| QVQLVESGGGLVQAGGSLRLSCAASGRTFTVYAMGWYRPAPGKERELVAAISSGGITYYADSVKGRFTISRDNAKNTVYLQMNSLKPEDTAVYYCNTKSGKARYEFGYWGQGTQVTVSS | low polyreactivity |
| QVQLVESGGGLVQAGGSLRLSCAASGRIFGDYGMGWYRQAPGKDRELVAAITDRGGTTYYADSVKGRFTISRDNAKNTVYVQKNSLQPEDTAVYYCNADTVVVWYSPSREYDYWGQGTQVTVSS | low polyreactivity |
| QVQLVESGGGLVQAGGSLRLSCAASGFTFARNAMGWYRPAPGKERELVAGITSRGSSTSYADSVKGRFTISRDNAKNTVYLQMNSLKPEDTAVYYSAADRYSAYLYWDEYWGQGTQVTVSS | high polyreactivity |
| QVQLVESGGGLVQAGGSLRLSCAASGFIFDYYAMGWYRQAPGKERELVATISSSGGSTYYADSVKGRFTISRDNAKNTVYLQMNSLKPEDTAVYYCATGYTWVADSWEYYYWGQGTQVTVSS | low polyreactivity |
| QVQLVESGGGLVQAGGSLRLSCAASGFTYRVNAMGWYRQATGKERELVAAITVSDGRTYYADSVKGRFTISRDNAKNTVYLQMNSLKPEDTAVYYCAADYKGAFTTDWSSEYEYWGQGTQVTVSS | low polyreactivity |
| QVQLVESGGGLVQAGGSLRLSCAASGSIYRYAMGWYRQAPGKEREFVAAITGGSGSTYYADSVKGRFTISRDNAKNTVYLQMNSLKPEDTAVYYCAASIWRGLTPLLIGFDYWGQGTQVTVSS | high polyreactivity |
| QVQLVESGGGLVQAGGSLRLSCAASGSIFLYYAMGWYRQAPGKERELVAAISYSGASTYYADSVKGRFTISRDNAKNTVYLQMNSLKPEDTAVYYCARDYGQYVGEGCYWGQGTQVTVSS | low polyreactivity |
| QVQLVESAGGLVQAGCSLRLSCAASGSPFGYYAMGWYRQAPGKVRELVAAISRSGVSTYYADSVKGRFTISRDNAKNTFYLQMNSLKPEDTAVYYCDRVRSTPGSYNRFYYWGQGTQVTVSS | high polyreactivity |
| QVQLVESGGGLDQAGGSLRLSCAASGSIFESYAMGWYRQAPGKERELVAAITKRGGSTYYADSVKGRFTISRDNAKNTVYLQMNRLKPEDTAVYYCNASWPGIGPIYDYWGQGTQVTVSS | low polyreactivity |
| QVQRVESRGGLVQAGGSLRLSCAASGSTFAVYALGWYRQAPGKERELVAAISQSGGSTNYADSVKGRFTISRDNAKNTVYLQMNSLKPEDTAVYYCNVDVSRSWAQPYTYDYWGQGTQVTVSS | low polyreactivity |
| QVQLVESGGGLVQAGGSLRLSCAASGRTLRKYAMGWYRQAPGKERELVAAISSSGGNTYYADSVKGRFTISRDNAKNTVYLQMNSLKPEDTAVYYCAAGFYYPTARVGYYYWGQGTQVTVSS | high polyreactivity |
| QVQLVESGGGLVQAGGSLRLSCAASGRTLRTYTMGWYRQAPGKERELVAAISSSDDSTYYADSVKGRFTISRDNEKNTVYLQMNSLKPEDNAVYSCAKDGLYPTEYGYWGQGTQVTVSS | high polyreactivity |
| QVQLVESGGGLVQAGGSLRLSCAASGRIFLTYVMGWYRQAPGKERELVAAITSSGGTTYYADSVKGRFTISRDNAKNTVYLQMKSLKPEDTAVYYCNAGSSYQYGPRYNYWGQGTQVTVSS | low polyreactivity |
| QVQLVESGGGLVQAGGSLRLSCAASGFTFYTYALGWYRQAPGKEWELVAAITSGGGTYYADSVKGRFTISRDNAKNTVYLQMNSLKPEDTAVYYCNRASRRGYYYPYNYWGQGTQVTVSS | high polyreactivity |

| Sequence | polyreactivity (PSR sort gate) |
| --- | --- |
| QVQLVESGGGLVQAGGSLRLSCAASGSTFRNYAMGWYRQAPGKERELVAAISRGDGTYYADSVKGRFTISRDNAKNTVYLQMNSLKPEDTAVYYCAAAYRGRQNPMGYWGQGTQVTVSS | high polyreactivity |
| QDQLVESGGGIVQAGGSLRLSCAASGFIFSTNAMGWYRQAPGKERELVAAITGRGTNTYYADSVKGRFTISRDNAKNTVYLQMNSLKPEDTAVYYCAADNKDSEDDYWGQGTQVTVSS | high polyreactivity |
| QVQLVESGGGLVQAGGSLRLSCAASGRIFTYNAMVWYRQAPGKERELVAVITSGGSTYYADSVKGRFTISRDNAKNTVYLQMNSLKPEDTAVYYCAARVWGSSQYYYWGQGTQVTVSS | low polyreactivity |
| QVQLVESGGGLVQAGGSLRLSCAASGIIIDSNAMGWYRQAPGKERELVAAITSGGSTKYADSVKGRFTISRDNAKNTVYLQMNSLKPEDTAVYYCAAGGSYYRDDYWGQGTQVTVSS | low polyreactivity |
| QVQLVESGGGLVQAGGSLRLSCAASGFTIAQNVMGWYRQAPGKERELVAAISVSGGSTYYADSVKGRFTISRDNAKNTVYLQMNSLKPEDTAVYYCNAVAGVTKRVDLSRSGYWGLGTQVTVSS | high polyreactivity |
| QVQLVESGGGLVQAGGSLRLSCAASGSTFYYNAMGWYRQAHGKERELVARISRSGGSTYADSVKGRFTISRDNAKNTVYLQMNSLKPEDTAVYYCNADAYGTPEFTSYAVRYDYWGQGTQVTVSS | low polyreactivity |
| QVQLVESGGGLVQAGGRLRLSCAASGFSFSLYGMGWYRQAPGKERELVAAIRSGGSPNYADSVKGRFTISRDNAKNTVYLQMNSLKPEDTAVYYGATDIHSVHNNRDKHDYDYWGQGTQETVSS | low polyreactivity |
| QVQLVESGGGLVQAGGSLRLSCAASGFTFTNYAMGWYRQAPGKEREFVARITWSGGSTYYADSVKGRFTISRDNAKNTVYLQMNSLKPEDTAVYYCAARGWLVRSFIYDYWGQGTQVTVSS | high polyreactivity |
| QVQLVESGGGLVQAGGSLRLSCAASGIIFRYYVMGWYRQAPGKERELVAAISWSGGSTYYADSVKGRFTISRDNAKNTVYLQMNSLKPEDTAVYYCAASRGILASEFGYWGQGTQVTVSS | high polyreactivity |
| QVQLVESGGGLVQAGGSLRLRCAASGSTFDGNAMGWYRQAPGKETELVAAITSGGSTNYADSVKGRFTISRDNANNTVYFQMYSLKPEDTAVYYCAAYTVSFSILYDYWGQGTQVTLSS | low polyreactivity |
| QVQHEESGRGLVQAGGSLRLSCAASGINCVYYAMGCYRQAPGKERELVAAISKNGGSTYYADSVKGRFTISRDNAYNTVYLQMNSLKPEDTAVYYCAAEEGYRWVRYNYWGQGTQVTVSS | high polyreactivity |
| QVQLLESGGGLVQARGSLRLSCAASGITFSRYAMGWYRQAPGKERELVAAITRRGGNTYYADSVKGSFTISRVYAKNTVYLQMNSLKPEDTAVYYCAAGYTYYRGDYWGQGTQVTVSS | high polyreactivity |
| QVQLVESGGGLVQAGGSLRLSCAASGSTFSRNAMGWYRQAPGKEREFVAAISTSGDSTYYADSVKGRFTISRDNAKNTVYLQMNSLKPEDTAVYYCADDGFWIAYQEGDYWGQGTQVTVSS | low polyreactivity |
| QVQLEESGGGLVQAGGSLRLSCAASGSIFDTYAMGWYRQAPGNERELVAAISSGGRTYYADSVKGRFTISRDNAKNTVYLQMNSLKPEDTAVYYCNARYHARYGGDYWGQGTQVTVSS | high polyreactivity |
| QVQLVESGGCLVQAGGSLRLSCAAYGSIFGGNAMGWYRQAPRKERELVAAITQSGDRTYYADSVKGRFTISRDNANNTFYFQMNSLKPEDTAVYYSAARSPRKYGSIGYYWGQGTQVTVSS | high polyreactivity |
| QVQLVESGGGLVQAGGSLRLSCAASGNTIFAYVMGWYRQAAGKEREFVAAISRRDGRTYYADSVKGRFTISRDNAKNTVYLQMNSLKPEDTAVYYCNAQRHFWHLYAPSSFDYWGQGTQVTVSS | low polyreactivity |
| QVQLVESGGGLVQAGGSLRLSCAASGSIFDYNAMGWYRQAPGKERELVAAISRSGGSTYYADSVKGRFTISRDNAKNTVYLQMNSLKPEDTAVYYCAALPSRPRGYDYWGHGTQVTVSS | high polyreactivity |
| QVQLVESGGGLVQAGGSLRLSCAASGRIFQRYAMGWYRQAPGKERELVAAITTGGRTYYADSVKGRFTISRDNAKNTVYLQMNSLKPEDTAVYYCAARFVGSRYRFDYWGQGTQVTVSS | high polyreactivity |
| QVQLVESGGGLVQAGGSLRLSCAASGRTFAIYAMGWYRQAPGIEREFVAAISWSGGDTYYADSVKGRFTISRDNAKNTVYLQMNSLKPEDTAVYYCAARDNDYEGRDLQYELDYWGQGTHVTVSS | low polyreactivity |
| QVQLVESGGGLVQAGGSLRLSCAASGSIFQPYAMGWYRQAPGKERELVAAITNGGSTYYADSVKGRFTISRDNAKNTVYLQMNSLKPEDTAVYYCAADVQSSHEYDYWGQGTQVTVSS | low polyreactivity |
| QVQLVESGGGLVQAGGSLRLSCAASGFIISYYAMGWYRQAPGKDRELVAAISWRGGSTYYADSVKGRFTISRDNAKNTVYLQMNSLKPEDTAVYYCAADFLYGAEGNDYWGQGTQVTVSS | high polyreactivity |
